These results are taken from article PMC3975500 (Cell Research, 2014).

To fix the notation:
B2: Lsm5 (full length), subunit of the crystallized Lsm1-7 complex (natural protein)
chain: MSLPEILPLEVIDKTINQKVLIVLQSNREFEGTLVGFDDFVNVILEDAVEWLIDPEDESRNEKVMQHHGRMLLSGNNIAILVPGGKKTPTEAL

For data set [1], the target named is B2. The data set is described as follows: crystal structure.
Data set [2] has as its target T1, Lsm7 (full length), subunit of the crystallized Lsm1-7 complex (S. cerevisiae, UniProt P53905 1-115).
T1 sequence: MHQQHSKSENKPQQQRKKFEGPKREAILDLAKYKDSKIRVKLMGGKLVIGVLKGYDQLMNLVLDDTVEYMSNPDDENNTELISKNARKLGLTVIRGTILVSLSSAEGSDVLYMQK
In words: crystal structure.

A further data set deals with T2, Lsm1-7 heptamer (Saccharomyces cerevisiae, UniProt P47017;P38203;P57743;P40070;P40089;Q06406;P53905 …).
T2 sequence 1: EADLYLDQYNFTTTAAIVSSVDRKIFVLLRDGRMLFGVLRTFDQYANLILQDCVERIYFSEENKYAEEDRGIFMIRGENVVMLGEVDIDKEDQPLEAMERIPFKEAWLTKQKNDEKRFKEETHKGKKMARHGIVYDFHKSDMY
T2 sequence 2: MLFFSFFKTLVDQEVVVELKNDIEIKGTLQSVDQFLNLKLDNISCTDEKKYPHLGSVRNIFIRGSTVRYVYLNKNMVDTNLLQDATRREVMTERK
T2 sequence 3: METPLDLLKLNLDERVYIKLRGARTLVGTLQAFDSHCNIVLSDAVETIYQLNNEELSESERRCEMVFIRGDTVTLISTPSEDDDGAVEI
T2 sequence 4: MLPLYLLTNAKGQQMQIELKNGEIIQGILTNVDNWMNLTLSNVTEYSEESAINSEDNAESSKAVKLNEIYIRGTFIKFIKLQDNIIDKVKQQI
T2 sequence 5: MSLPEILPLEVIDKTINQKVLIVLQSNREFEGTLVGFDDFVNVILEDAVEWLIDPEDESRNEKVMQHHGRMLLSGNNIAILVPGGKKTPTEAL
T2 sequence 6: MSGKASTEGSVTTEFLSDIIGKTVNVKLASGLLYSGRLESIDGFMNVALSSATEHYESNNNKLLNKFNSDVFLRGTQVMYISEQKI
T2 sequence 7: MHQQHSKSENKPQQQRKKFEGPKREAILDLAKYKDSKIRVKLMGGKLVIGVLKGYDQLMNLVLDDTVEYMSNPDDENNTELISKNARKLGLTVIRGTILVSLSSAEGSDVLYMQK
In words: BLI. On the technique in general: In BLI a coated tip is dipped into the sample, and binding shifts an interference pattern.

B1: Lsm6 (full length), subunit of the crystallized Lsm1-7 complex (natural protein)
chain: MSGKASTEGSVTTEFLSDIIGKTVNVKLASGLLYSGRLESIDGFMNVALSSATEHYESNNNKLLNKFNSDVFLRGTQVMYISEQKI
As for B1, in data set [1], the binding result is reported as “binds”.

Turning to B2, the binding result in data set [2] was “binds”.

B3: Lsm4 (residues 1-93), subunit of the crystallized Lsm1-7 complex (domain or fragment)
chain: MLPLYLLTNAKGQQMQIELKNGEIIQGILTNVDNWMNLTLSNVTEYSEESAINSEDNAESSKAVKLNEIYIRGTFIKFIKLQDNIIDKVKQQI
For the molecule B3, the binding result in data set [2] is listed as “binds”.

As to UUUUUUUU (ssRNA) [oligo-U (U8)], in the data set with Lsm1-7 heptamer, the Kd (commonly the equilibrium constant for the complex coming apart) is roughly 2000 nM.
